Data as given in patent publication US20090258344.

B1: bacterially expressed Histidine tag fusion of Dbs DH-PH domain protein (protein)
chain: LRRHVMSELLDTERAYVEELLCVLEGYAAEMDNPLMAHLLSTGLHNKKDVLFGNMEEIYHFHNRIFLRELENYTDCPELVGRCFLERMEDFQIYEKYCQNKPRSESLWRQCSDCPFFQECQRKLDHKLSLDSYLLKPVQRITKYQLLLKEMLKYSRNCEGAEDLQEALSSILGILKAVNDSMHLIAITGYDGNLGDLGKLLMQGSFSVWTDHKRGHTKVKELARFKPMQRHLFLHEKAVLFCKKREENGEGYEKAPSYSYKQSLNMAAVGITENVKGDAKKFEIWYNAREEVYIVQAPTPEIKAAWVNEIRKVLT
B2: bacterially expressed Histidine tag fusion of KIAA0861 DH-PH domain protein (protein)
chain: PRRRIIRDLLETEEIYIKEIKSIIDGYITPMDFIWLKHLIPDVLQNNKDFLFGNIRELYEFHNRTFLKELEKCAENPELLAHCFLKRKEDLQIYFKYHKNLPRARAIWQECQDCAYFGVCQRQLDHNLPLFKYLKGPSQRLIKYQMLLKGLLDFESPEDMEIDPGELGGSAKDGPKRTKDSAFSTELQQALAVIEDLIKSCELAVDLAAVTECPDDIGKLGKLLLHGPFSVWTIHKDRYKMKDLIRFKPSQRQIYLFERGIVFCKIRMEPGDQGLSPHYSFKKTMKLMTLSIRQLGRGSHRKFEIASRNGLEKYILQAASKEIRDCWFSEISKLLM

Columns and labels:
[1] = target: GST-tag fusion of the GTPase RhoA
[2] = target: GST-tag fusion of the GTPase Cdc42

Row | Protein | N-methylanthraniloyl(mant)-GTP incorporation into Rho GTPase, relative fluorescence (guanine nucleotide exchange assay) [1] | N-methylanthraniloyl(mant)-GTP incorporation into Rho GTPase, relative fluorescence (guanine nucleotide exchange assay) [2]
1 | B1 | KIAA0861 and DBS DH-PH domain proteins are active in exchanging guanine nucleotide from the GST-tag fusions of the GTPases, RhoA and Cdc42 | KIAA0861 and DBS DH-PH domain proteins are active in exchanging guanine nucleotide from the GST-tag fusions of the GTPases, RhoA and Cdc42
2 | B2 | KIAA0861 and DBS DH-PH domain proteins are active in exchanging guanine nucleotide from the GST-tag fusions of the GTPases, RhoA and Cdc42 | KIAA0861 and DBS DH-PH domain proteins are active in exchanging guanine nucleotide from the GST-tag fusions of the GTPases, RhoA and Cdc42
